The text below walks through data of patent US20260055162A1.

Experiment [1] concerns the target AA-SR-113 (SR-113), TIGIT ECD-TIGIT TM-CD3z ICD. Nature of the experiment: cell-based or functional assay.
Experiment [2] addresses AA-SR-128 (SR-128), TIGIT ECD-CD28 TM-CD3z ICD. Nature of the experiment: cell-based or functional assay.

Sequence of AA-SR-113 (SR-113), TIGIT ECD-TIGIT TM-CD3z ICD (chain, as listed by the source limits assumed, form in doubt): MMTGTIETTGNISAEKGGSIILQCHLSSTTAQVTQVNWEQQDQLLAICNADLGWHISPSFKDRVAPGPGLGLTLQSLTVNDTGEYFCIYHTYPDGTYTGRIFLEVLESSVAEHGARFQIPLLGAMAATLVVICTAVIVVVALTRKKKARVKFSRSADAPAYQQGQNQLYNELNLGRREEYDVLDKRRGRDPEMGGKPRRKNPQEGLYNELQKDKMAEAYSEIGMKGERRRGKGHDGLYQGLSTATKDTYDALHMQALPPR
Sequence of AA-SR-128 (SR-128), TIGIT ECD-CD28 TM-CD3z ICD (chain, as listed by the source limits assumed, form in doubt): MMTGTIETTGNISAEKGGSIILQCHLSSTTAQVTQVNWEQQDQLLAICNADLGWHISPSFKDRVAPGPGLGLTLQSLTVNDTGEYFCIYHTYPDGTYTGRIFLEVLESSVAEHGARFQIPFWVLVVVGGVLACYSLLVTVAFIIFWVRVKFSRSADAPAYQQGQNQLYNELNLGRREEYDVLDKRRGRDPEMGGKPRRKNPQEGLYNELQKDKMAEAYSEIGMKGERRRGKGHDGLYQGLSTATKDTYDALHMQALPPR

In the case of anti-TIGIT mAb clone A15153G (antibody), in experiment [1], the CD69, fold-change of MFI over no stimulation, High (10 ug/mL) was 17.1 fold; the CD69, fold-change of MFI over no stimulation, Low (0.4 ug/mL) came out at 7.2 fold; the CD69, fold-change of MFI over no stimulation, Med. (2 ug/mL) turned out to be 17.1 fold; the GFP, fold-change of MFI over no stimulation, High (10 ug/mL) was found to be 4.6 fold. In addition, in experiment [1], the GFP, fold-change of MFI over no stimulation, Low (0.4 ug/mL) was determined as 0.9 fold and the GFP, fold-change of MFI over no stimulation, Med. (2 ug/mL) is 2.2 fold. In experiment [2], the CD69, fold-change of MFI over no stimulation, High (10 ug/mL) worked out at 3.4 fold; the CD69, fold-change of MFI over no stimulation, Low (0.4 ug/mL) is 1.2 fold; the CD69, fold-change of MFI over no stimulation, Med. (2 ug/mL) was determined as 2.6 fold; the GFP, fold-change of MFI over no stimulation, High (10 ug/mL) is 1.7 fold. Also, in experiment [2], the GFP, fold-change of MFI over no stimulation, Low (0.4 ug/mL) came to 0.6 fold and the GFP, fold-change of MFI over no stimulation, Med. (2 ug/mL) amounted to 1.2 fold.
